The source of these data is paper PMC3880548 (Biochemistry, 2012).

This data set concerns the molecule itself. Nature of the data set: SEC. In general terms: Size exclusion chromatography separates by hydrodynamic size, large species first.

Broadly, the stoichiometry N is a count of units in the complex or per binding partner.

Substitutions are numbered along the chain they refer to. In names and notes the source's numbering stands.

B1: Shewanella oneidensis cytochrome c peroxidase, wild type (enzyme)
chain: AEPIEVITPAKITEPEKVELGKMLFFEPRLSKSGFISCNSCHNLSTGGVDALPTSIGHHWQEGPINSPTVLNADFMLAQFWDGRASNLKEQAAGPIANPKEMGFTHELATETIASMPAYRARFAKVYGDEKVDIDRLTDAIAAFEKTLVTPNSPFDQYLLGKQDAISGDAKAGYQLFKDKGCVSCHNGPAVGGTMFMKMGLIKPFHTNNPAEGRKGVTGKDADKFVFKVPTLRNIELTYPYFHDGSVWTLEEAVNTMADIQLGQKLTEKETKEMVAFLNSLTGEQPQISLPILPPSNKETPRPVPFATGAK
For B1, the “stoichiometry N” value is 2.

B2: Shewanella oneidensis cytochrome c peroxidase E321K charge reversal mutant (enzyme)
chain: B1 chain with E299K
B2: the “stoichiometry N” value was found to be 2.
